The values below come from patent US20160009795A1 (BIOCARE MEDICAL, published 2016).

Assay [1] addresses T1, p40 peptide amino acids 1-17 (MLYLENNAQTQFSEPQY) (human).
T1 peptide: MLYLENNAQTQFSEPQY
Kind of assay: epitope mapping, peptide ELISA and dot blot. From the text:
(§1) In order to determine the peptide sequence of p40 that is recognized by anti-p40 antibodies such as BC28, epitope mapping may be conducted perhaps using two assays: direct ELISA and even dot blot. In an ELISA assay, the sensitivity and specificity of the anti-p40 [BC28] antibody may be determined by measuring the antibody titer at about 1:500 and about 1:1000. Overlapping peptides at a length of about 15 amino acids each, covering the human p40 protein sequence from perhaps 1 to 17 amino acids, may be used to determine a sequence of BC28 binding.
(An ELISA detects its analyte on a solid surface through an enzyme-linked reagent.)

Assay [2] concerns the target T2, p40 peptide amino acids 1-9 (MLYLENNAQ) (human).
T2 peptide: MLYLENNAQ
Kind of assay: epitope mapping, peptide ELISA and dot blot.
Source text: as §1

B1: mouse monoclonal anti-p40 antibody BC28 (antibody, mouse IgG1, V domains shown)
VH: GVKLVESGGGFVKPGGSLTLSCAASGFTFSIYAMSWVRQTPEKRLEWVTSISSGDDIFYPDNLKGQFTISRDNARNILYLQMSSLRSEDTAIYYCVRHGYNATDYWGQGTSVTVSS
VL: DVLMTQTPLSLPVSLGDQASISCRSSQSIVYSNGNTYLEWYLQKPGQSPKLLIYKVSNRFSGVPDRFSGSGSGTDFTLKISRVEAEDLGVYYCFQGSHVPFTFGSGTKLEIK
notes: also called p40 [BC28]; p40 (M)
In the case of B1, the binding result in assay [1] and in assay [2] was “binds” in each case.
